Consider 125 sequences from the supplement of paper PMC9112550, “Optimization of the antimicrobial peptide Bac7 by deep mutational scanning” (BMC Biology, 2022).

This data set concerns Escherichia coli TOP10. The experiment in a line: shrunken log2 fold change of peptide-encoding DNA abundance (4.5 h post-induction vs induction); higher = less antimicrobial activity (less host growth inhibition). Conditions: time post-induction: 4.5 h; library: site-saturation at positions 5, 18, 19, 20.
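Further: peptides expressed intracellularly from a pBAD plasmid library in pooled LB shake-flask culture, induced with 0.3% L-arabinose, DNA abundance read by NGS, three biological replicates, DESeq2 with apeglm shrinkage.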

Take RRIRDRPPRLPRPRPRPYWAPRP: the “shrunken log2 fold change” value was -0.0312.
On to RRIRYRPPRLPRPRPRPNPFPRP, for which the “shrunken log2 fold change” value was -0.0444.
Regarding RRIRERPPRLPRPRPRPHVPPRP, the “shrunken log2 fold change” value was -0.0791.
The same measure for RRIRGRPPRLPRPRPRPWDLPRP: -0.0503; for RRIRHRPPRLPRPRPRPPWPPRP: 0.504; for RRIRMRPPRLPRPRPRPANNPRP: -0.264.
In the case of RRIRARPPRLPRPRPRPIWFPRP, the “shrunken log2 fold change” value came to 0.225.
RRIRARPPRLPRPRPRPVDDPRP: the “shrunken log2 fold change” value is 0.469.
On to RRIRARPPRLPRPRPRPPCEPRP, for which the “shrunken log2 fold change” value was determined as 0.716.
The same measure for RRIRGRPPRLPRPRPRPNGQPRP: 0.386.
The same measure for RRIRARPPRLPRPRPRPLICPRP: 0.341.
For the sequence RRIRHRPPRLPRPRPRPEACPRP, the “shrunken log2 fold change” value was -0.0115.
Then RRIRWRPPRLPRPRPRPPRQPRP, with 0.209; and RRIRPRPPRLPRPRPRPNDSPRP, with -0.442.
Then RRIRIRPPRLPRPRPRPVTPPRP, with -0.0315.
Then RRIRVRPPRLPRPRPRPAEGPRP, with -0.0119.
RRIRTRPPRLPRPRPRPLYKPRP: the “shrunken log2 fold change” value is -0.274.
The same measure for RRIRVRPPRLPRPRPRPVEHPRP: 0.00181.
As for RRIRSRPPRLPRPRPRPTQIPRP, the “shrunken log2 fold change” value is 0.048.
For the sequence RRIRARPPRLPRPRPRPNQAPRP, the “shrunken log2 fold change” value was -0.117.
Then RRIRSRPPRLPRPRPRPIYIPRP, with -0.776; and RRIRVRPPRLPRPRPRPVDYPRP, with -0.034; and RRIRRRPPRLPRPRPRPPPKPRP, with 0.995.
The same measure for RRIRMRPPRLPRPRPRPTTLPRP: 0.34.
For the sequence RRIRSRPPRLPRPRPRPNAVPRP, the “shrunken log2 fold change” value is -0.205.
RRIRLRPPRLPRPRPRPEKRPRP: the “shrunken log2 fold change” value is -0.148.
The same measure for RRIRNRPPRLPRPRPRPAQLPRP: -0.207.
For RRIRPRPPRLPRPRPRPYMRPRP, the “shrunken log2 fold change” value is -0.000384.
Regarding RRIRWRPPRLPRPRPRPWEVPRP, the “shrunken log2 fold change” value was -0.0113.
Then RRIRLRPPRLPRPRPRPACPPRP, with -0.00982.
The same measure for RRIRNRPPRLPRPRPRPDKIPRP: 0.159.
RRIRWRPPRLPRPRPRPSAHPRP: the “shrunken log2 fold change” value came out at 0.062.
The same measure for RRIRRRPPRLPRPRPRPVEWPRP: -0.182; for RRIRLRPPRLPRPRPRPALQPRP: 0.215; for RRIRERPPRLPRPRPRPADWPRP: 0.349.
RRIRARPPRLPRPRPRPIIWPRP: the “shrunken log2 fold change” value is -0.419.
Then RRIRYRPPRLPRPRPRPHSLPRP, with -0.184.
Regarding RRIRLRPPRLPRPRPRPGKGPRP, the “shrunken log2 fold change” value was -0.0192.
Take RRIRVRPPRLPRPRPRPRPDPRP: the “shrunken log2 fold change” value amounted to 0.216.
Then RRIRARPPRLPRPRPRPDFGPRP, with 0.106.
Then RRIRMRPPRLPRPRPRPEEHPRP, with 2.85.
Take RRIRQRPPRLPRPRPRPRKQPRP: the “shrunken log2 fold change” value was determined as 0.505.
As to RRIRHRPPRLPRPRPRPMVCPRP, the “shrunken log2 fold change” value is -0.0703.
The same measure for RRIRERPPRLPRPRPRPREEPRP: -0.00173.
The same measure for RRIRTRPPRLPRPRPRPVVNPRP: 0.0198; for RRIRCRPPRLPRPRPRPGDIPRP: 0.161; for RRIRSRPPRLPRPRPRPPGNPRP: -0.0179.
RRIRARPPRLPRPRPRPMHYPRP: the “shrunken log2 fold change” value was -0.0399.
The same measure for RRIRMRPPRLPRPRPRPWNNPRP: -0.964; for RRIRDRPPRLPRPRPRPFNEPRP: 0.0103; for RRIRERPPRLPRPRPRPIMGPRP: -0.21.
In the case of RRIRFRPPRLPRPRPRPSKVPRP, the “shrunken log2 fold change” value was -0.293.
RRIRWRPPRLPRPRPRPIKIPRP: the “shrunken log2 fold change” value was -0.0625.
Consider RRIRRRPPRLPRPRPRPMRLPRP, for which the “shrunken log2 fold change” value was found to be 0.667.
For the sequence RRIRPRPPRLPRPRPRPPEEPRP, the “shrunken log2 fold change” value stood at 0.885.
Then RRIRVRPPRLPRPRPRPGLRPRP, with 0.663.
The same measure for RRIRARPPRLPRPRPRPFNWPRP: 0.0857; for RRIRGRPPRLPRPRPRPETKPRP: 0.374.
For RRIRFRPPRLPRPRPRPLVKPRP, the “shrunken log2 fold change” value was -0.143.
The same measure for RRIRCRPPRLPRPRPRPCSSPRP: 0.0866; for RRIRIRPPRLPRPRPRPKVLPRP: -0.0165.
Then RRIRRRPPRLPRPRPRPDGWPRP, with 1.45; and RRIRLRPPRLPRPRPRPNFPPRP, with -0.00674.
RRIRGRPPRLPRPRPRPEEVPRP: the “shrunken log2 fold change” value was determined as 1.53.
For RRIRCRPPRLPRPRPRPYSRPRP, the “shrunken log2 fold change” value is -0.0442.
The same measure for RRIRFRPPRLPRPRPRPQCFPRP: -0.0591; for RRIRWRPPRLPRPRPRPLERPRP: -0.148; for RRIRVRPPRLPRPRPRPTRGPRP: 0.412.
The same measure for RRIRKRPPRLPRPRPRPQRHPRP: 1.73.
On to RRIRKRPPRLPRPRPRPYAAPRP, for which the “shrunken log2 fold change” value is -0.102.
As for RRIRVRPPRLPRPRPRPRDMPRP, the “shrunken log2 fold change” value is -0.0624.
Consider RRIRSRPPRLPRPRPRPMFHPRP, for which the “shrunken log2 fold change” value was -0.438.
The same measure for RRIRCRPPRLPRPRPRPAFSPRP: -0.252; for RRIRDRPPRLPRPRPRPEDMPRP: 1.81.
Then RRIRDRPPRLPRPRPRPQVLPRP, with -0.178; and RRIRCRPPRLPRPRPRPYHAPRP, with -0.585; and RRIRLRPPRLPRPRPRPEPFPRP, with -0.0343.
In the case of RRIRERPPRLPRPRPRPWIKPRP, the “shrunken log2 fold change” value was -0.924.
For RRIRWRPPRLPRPRPRPDAGPRP, the “shrunken log2 fold change” value worked out at 0.485.
As to RRIRRRPPRLPRPRPRPHSVPRP, the “shrunken log2 fold change” value turned out to be 0.0319.
Then RRIRARPPRLPRPRPRPFIEPRP, with 0.0738.
As for RRIRDRPPRLPRPRPRPPQRPRP, the “shrunken log2 fold change” value was found to be 0.719.
Regarding RRIRHRPPRLPRPRPRPVMVPRP, the “shrunken log2 fold change” value is -2.78e-05.
Then RRIRLRPPRLPRPRPRPHQDPRP, with -0.308.
With RRIRIRPPRLPRPRPRPGENPRP, the “shrunken log2 fold change” value is -0.0334.
The same measure for RRIRIRPPRLPRPRPRPLGEPRP: -0.277.
The same measure for RRIRARPPRLPRPRPRPGIFPRP: 0.468.
The same measure for RRIRSRPPRLPRPRPRPLFEPRP: -0.0159; for RRIRIRPPRLPRPRPRPGYDPRP: -0.576.
With RRIRIRPPRLPRPRPRPDVWPRP, the “shrunken log2 fold change” value was -0.109.
Then RRIRFRPPRLPRPRPRPTSDPRP, with -0.206; and RRIRQRPPRLPRPRPRPHAIPRP, with -0.562; and RRIRVRPPRLPRPRPRPPMEPRP, with -0.172.
Take RRIRWRPPRLPRPRPRPGGKPRP: the “shrunken log2 fold change” value worked out at 0.227.
The same measure for RRIRNRPPRLPRPRPRPGPMPRP: -0.0257.
Then RRIRIRPPRLPRPRPRPHWNPRP, with -0.758; and RRIRTRPPRLPRPRPRPEKAPRP, with 0.00451.
Then RRIRCRPPRLPRPRPRPYFQPRP, with -0.846; and RRIRFRPPRLPRPRPRPSCNPRP, with -0.714.
In the case of RRIRERPPRLPRPRPRPLQSPRP, the “shrunken log2 fold change” value was -0.306.
On to RRIRKRPPRLPRPRPRPWMLPRP, for which the “shrunken log2 fold change” value is -0.266.
On to RRIRSRPPRLPRPRPRPPPDPRP, for which the “shrunken log2 fold change” value came to 0.848.
The same measure for RRIRPRPPRLPRPRPRPCHDPRP: -0.097; for RRIRCRPPRLPRPRPRPLHQPRP: -0.168; for RRIRCRPPRLPRPRPRPYYMPRP: -0.904.
Then RRIRCRPPRLPRPRPRPEFGPRP, with 0.241.
With RRIRMRPPRLPRPRPRPMQKPRP, the “shrunken log2 fold change” value came to 0.0563.
Then RRIRQRPPRLPRPRPRPTRNPRP, with 0.185; and RRIRLRPPRLPRPRPRPDGTPRP, with 0.245.
The same measure for RRIRNRPPRLPRPRPRPQRTPRP: -0.248.
Then RRIRSRPPRLPRPRPRPWQLPRP, with -0.018; and RRIRNRPPRLPRPRPRPRDWPRP, with 0.0384; and RRIRKRPPRLPRPRPRPRLKPRP, with 0.365.
As for RRIRHRPPRLPRPRPRPKNCPRP, the “shrunken log2 fold change” value turned out to be 0.00397.
Then RRIRCRPPRLPRPRPRPVSSPRP, with -0.0119.
Consider RRIRHRPPRLPRPRPRPAGQPRP, for which the “shrunken log2 fold change” value is -0.00146.
Turning to RRIRWRPPRLPRPRPRPTGCPRP, the “shrunken log2 fold change” value was 0.141.
As for RRIRGRPPRLPRPRPRPWKPPRP, the “shrunken log2 fold change” value was determined as 0.0444.
As to RRIRHRPPRLPRPRPRPTAHPRP, the “shrunken log2 fold change” value is -0.173.
Then RRIRGRPPRLPRPRPRPMFSPRP, with 0.147; and RRIRMRPPRLPRPRPRPQWNPRP, with -0.149.
In the case of RRIRDRPPRLPRPRPRPFEVPRP, the “shrunken log2 fold change” value is -0.0211.
The same measure for RRIRMRPPRLPRPRPRPWVCPRP: 0.154.
Take RRIRYRPPRLPRPRPRPPLMPRP: the “shrunken log2 fold change” value is -0.293.
As for RRIRIRPPRLPRPRPRPCIFPRP, the “shrunken log2 fold change” value was -0.402.
